Measured values reported in US20230242658A1 (published 2023).
Changes are numbered by the printed parent chain. Names and notes keep the numbering of the source.

B1: PR001768 (antibody, human IgG1, V domains shown)
VH: EVQLLESGGGLVQPGGSLRLSCAASGFTFSNYAMTWVRQAPGKGLEWVSSISGSGDSTYYADSVKGRFTISRDNSKNTLYLQMNSLRAEDTAVYYCAKEGTGTTSDYYYNVDVWGQGTTVTVSS
notes: HCAb, heavy chain only, human IgG1 Fc; also called 1016P0039B9
B2: PR001834 (antibody, human IgG1, V domains shown)
VH: EVQLLESGGGLVQPGGSLRLSCAASGFTFSGYAMTWVRQPPEKGLEWVSSISGSGNNTFYADSVKGRFTISRDNSKNTLYLQMNSLRAEDTAVYYCAKEGTTETDDYHYNMDVWGQGTTVTVSS
notes: HCAb, heavy chain only, human IgG1 Fc; also called 1016P0019C9
B3: PR001837 (antibody, human IgG1, V domains shown)
VH: B2 VH with A23E, G31S, T35S, P40A, N56G, N57S
notes: HCAb, heavy chain only, human IgG1 Fc; also called 1016P0024B10
B4: PR001766 (antibody, human IgG1, V domains shown)
VH: B1 VH with N31S, T35S, V37G, D56G, G100K, S105G, N110D, V111M
notes: HCAb, heavy chain only, human IgG1 Fc; also called 1016P0034F10
B5: PR001842 (antibody, human IgG1, V domains shown)
VH: EVQLLESGGGLVQPGGSLRLSCAASGFTFSSYAMSWGRQAPGKGLEWVSAISGSGGSTYYADSVKGRFTISRDNSKNTLYLHMNSLRAEDTAVYYCAKEKVATTGDYYYDMDVWGQGTTVTVSS
notes: HCAb, heavy chain only, human IgG1 Fc; also called 1016P0045A3
B6: PR007381 (antibody, human IgG1, V domains shown)
VH: EVQLLESGGGLVQPGGSLRLSCAASGFTFSNYAMSWVRQAPGKGLEWVSSIDASGGDTYYADSVKGRFTISRDNSKNTLYLQMNSLRAEDTAVYYCAKEGSHGTDDSHYDVDVWGQGTTVTVSS
notes: HCAb, variant of PR001838 (F37V, P40A, E42G, T43K, K46E, G53A), human IgG1
B7: PR001781 (antibody, human IgG1, V domains shown)
VH: B1 VH with P14L, N31S, G42E, D56G, S57N, G100R, S105G
notes: HCAb, heavy chain only, human IgG1 Fc; also called 1016P007F3
B8: PR001780 (antibody, human IgG1, V domains shown)
VH: EVQLLESGGGLIQPGGSLRLSCAASGFTFSSFAMTWVRQAPGKGLEWVSTISGSGDNTYYADSVKGRFTISRDNSKNTLYLQMNSLRAEDTAVYFCAKEDTAVASDYYYNIDVWGQGTTVTVSS
notes: HCAb, heavy chain only, human IgG1 Fc; also called 1016P0058D11
B9: PR001771 (antibody, human IgG1, V domains shown)
VH: B1 VH with A40P, D56G
notes: HCAb, heavy chain only, human IgG1 Fc; also called 1016P0042C5
B10: PR001774 (antibody, human IgG1, V domains shown)
VH: B8 VH with L5V, I12V, G42E, N57T, N74S, T91S, D100A, V103M, N110G, I111V
notes: HCAb, heavy chain only, human IgG1 Fc; also called 1016P0045F7
B11: PR007289 (antibody, human IgG1, V domains shown)
VH: EVQLVESGGGLVKPGGSLRLSCAASGFTFSDYYMSWFRQAPGKGLEWVSYISSSGSTQDYADSVKGRFTISRDNAKNSLYLQMNSLRAEDTAVYYCAREREPVAGTLDFDNWGQGTPVTVSS
notes: HCAb, heavy chain only, human IgG1 Fc; also called R1016P145B11
B12: PR007290 (antibody, human IgG1, V domains shown)
VH: B11 VH with L11V, K13Q, G16R, S56T, Q58I, P102E, N111Y
notes: HCAb, heavy chain only, human IgG1 Fc; also called R1016P145C05
B13: PR007288 (antibody, human IgG1, V domains shown)
VH: B11 VH with S53G, T57I, Q58I, A97S, P102A, N111Y, P117L
notes: HCAb, heavy chain only, human IgG1 Fc; also called R1016P144G12
B14: PR001763 (antibody, human IgG1, V domains shown)
VH: EVQLLESGGGLVQPGGSLRLSCTASGFTFSNYAMSWVRQAPEKGLEWVSSISGSGGSTFYADSVKGRFTISRDNSKNTLYLQMNRLTAEDTAVYYCAKEGSNGTDDYHYDIDVWGQGTTVTVSS
notes: HCAb, heavy chain only, human IgG1 Fc; also called 1016P0016E9
B15: PR001831 (antibody, human IgG1, V domains shown)
VH: EVQLVESGGGVIQPGGSLRLSCEASGFTFSSYAMSWVRQAPEKGLEWVSSISGSGDSTYYADSVKGRFTISRDNSKNTLYLQMNSLRAEDTAGYHCAKEGSNGTDDYHYDIDVWGQGTSVTVSS
notes: HCAb, heavy chain only, human IgG1 Fc; also called 1016P0015C8

What follows are binders tested against T1, human 4-1BB on CHO-K1 cells (human, UniProt Q07011 24-255) (assay: FACS, CHO-K1/hu 4-1BB cells).
T1 construct: whole, on cells; also called CHO-K1/hu 4-1BB; CHO-K1/hu4-1BB
T1 sequence (Q07011 24-255): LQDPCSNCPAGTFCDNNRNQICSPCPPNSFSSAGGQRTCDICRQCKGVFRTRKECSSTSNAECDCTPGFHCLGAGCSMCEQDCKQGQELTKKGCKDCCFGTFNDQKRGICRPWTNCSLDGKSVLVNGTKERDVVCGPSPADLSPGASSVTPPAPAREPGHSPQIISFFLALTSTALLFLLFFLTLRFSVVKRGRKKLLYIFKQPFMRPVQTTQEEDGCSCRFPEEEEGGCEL

| Binder | binding result | EC50 |
| --- | --- | --- |
| B1 | binds | – |
| B2 | binds | – |
| B3 | binds | – |
| B4 | binds | – |
| B5 | binds | – |
| B6 | binds | – |
| B7 | binds | – |
| B8 | binds | – |
| B9 | binds | – |
| B10 | binds | – |
| B11 | binds | – |
| B12 | binds | – |
| B13 | binds | – |
| B14 | binds | – |
| B15 | – | < 0.3 nM |
